First the molecules themselves.
B1: wt mouse RtcB-Flag (pCMV3-mRTCB-Flag) [mouse] / PTP1B-C215S (trapping mutant; pcDNA3.1/Zeo-PTP1B [not stated] (parent)
chain 1: MSRNYNDELQFLDKINKNCWRIKKGFVPNMQVEGVFYVNDALEKLMFEELRNACRGGGVGGFLPAMKQIGNVAALPGIVHRSIGLPDVHSGYGFAIGNMAAFDMNDPEAVVSPGGVGFDINCGVRLLRTNLDESDVQPVKEQLAQAMFDHIPVGVGSKGVIPMNAKDLEEALEMGVDWSLREGYAWAEDKEHCEEYGRMLQADPNKVSPRAKKRGLPQLGTLGAGNHYAEIQVVDEIFNEYAAKKMGIDHKGQVCVMIHSGSRGLGHQVATDALVAMEKAMKRDKIIVNDRQLACARIASPEGQDYLKGMAAAGNYAWVNRSSMTFLTRQAFAKVFNTTPDDLDLHVIYDVSHNIAKVEQHVVDGKERTLLVHRKGSTRAFPPHHPLIAVDYQLTGQPVLIGGTMGTCSYVLTGTEQGMTETFGTTCHGAGRALSRAKSRRNLDFQDVLDKLADMGIAIRVASPKLVMEEAPESYKNVTDVVNTCHDAGISKKAIKLRPIAVIKG
chain 2: MEMEKEFEQIDKSGSWAAIYQDIRHEASDFPCRVAKLPKNKNRNRYRDVSPFDHSRIKLHQEDNDYINASLIKMEEAQRSYILTQGPLPNTCGHFWEMVWEQKSRGVVMLNRVMEKGSLKCAQYWPQKEEKEMIFEDTNLKLTLISEDIKSYYTVRQLELENLTTQETREILHFHYTTWPDFGVPESPASFLNFLFKVRESGSLSPEHGPVVVHSSAGIGRSGTFCLADTCLLLMDKRKDPSSVDIKKVLLEMRKFRMGLIQTADQLRFSYLAVIEGAKFIMGDSSVQDQWKELSHEDLEPPPEHIPPPPRPPKRILEPHNGKCREFFPNHQWVKEETQEDKDCPIKEEKGSPLNAAPYGIESMSQDTEVRSRVVGGSLRGAQAASPAKGEPSLPEKDEDHALSYWKPFLVNMCVATVLTAGAYLCYRFLFNSNT

The values that follow come from article PMC8899846.

In this assay the parent is B1. In words: co-immunoprecipitation (IP: PTP1B, immunoblot RtcB), band quantification. As to conditions: with PTP1B-C215S (trapping mutant; pcDNA3.1/Zeo-PTP1B C215S); HEK cells, 1 μg RtcB-Flag plasmid and 1 μg PTP1B C215S plasmid; n = 3; parent: 100; read off a plot.
For chain 1 Y306F Y316F, the percent of parent is 37 % WT.

For chain 1 Y306F, the percent of parent was 100 % WT.

On to chain 1 Y316F, for which the percent of parent came to 75 % WT.

With chain 1 Y475F, the percent of parent is 55 % WT.

On to chain 1 Y306F Y316F Y475F, for which the percent of parent was determined as 38 % WT.
